B1: THAP1; numbered along this chain (parent)
chain: MVQSCSAYGCKNRYDKDKPVSFHKFPLTRPSLCKEWEAAVRRKNFKPTKYSSICSEHFTPDCFKRECNNKLLKENAVPTIFLCTEPHDKKEDLLEPQEQLPPPPLPPPVSQVDAAIGLLMPPLQTPVNLSVFCDHNYTVEDTMHQRKRIHQLEQQVEKLRKKLKTAQQRCRRQERQLEKLKEVVHFQKEKDDVSERGYVILPNDYFEIVEVPA

Variants of: B1
Test: THAP1 transcriptional activity (GFP+/GFP- enrichment relative to wild-type constructs) (ratio to WT); higher = more THAP1 activity (PSMB5 reporter activation)
Details: with PSMB5 promoter-GFP reporter
Procedure: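 Deep mutational scan of human THAP1. Site-saturation single amino acid variant library (residues 2-213) was expressed by lentivirus at MOI ~0.3 in THAP1-knockout HEK-293T cells carrying an endogenous PSMB5 promoter-GFP knock-in reporter. Five days post-transduction, BFP+ cells were FACS-sorted into GFP dim and GFP bright populations and variants were counted by Illumina sequencing. Activity is the GFP-bright/GFP-dim read fold change, mean of 2 replicates, divided by the mean fold change of wild-type (synonymous) constructs in the same screen pool; WT = 1.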

Variant	THAP1 transcriptional activity
K64L	0.145
K64M	0.112
Q187G	0.874
Q187D	0.783
F63S	0.0787
F63R	0.084
E210G	0.666
P78D	0.183
P78Q	0.241
D204C	0.753
V131F	0.399
V131I	0.81
D61A	0.309
D61S	0.312
K164G	0.106
K164L	0.298
K164Q	0.304
P107L	1.74
Q168F	0.256
Q168V	0.249
Q168W	0.157
L201Q	0.653
L201Y	0.773
L201S	0.906

Variant	THAP1 transcriptional activity
E174V	0.568
E174K	0.794
E174P	0.189
Q155H	0.765
Q155K	0.749
Q155R	0.65
N12H	0.108
N12F	0.112
K70I	0.33
R169V	0.347
R169Q	0.379
P96K	1.37
P96A	1.82
K161C	0.37
L105Y	0.831
Q154D	0.962
L118E	0.947
R171G	0.285
S4D	0.154
S4M	0.201
S4N	0.14
S4F	0.177
S4L	0.241
E66Q	0.814

Variant	THAP1 transcriptional activity
E66K	0.629
L93S	0.575
L93W	1.12
L93Y	1.08
P104K	1.14
P104A	1.09
P104D	6.01
P104E	1.85
A114L	0.635
L177D	0.233
L177R	0.3
L32R	0.31
K34R	0.841
A38T	0.773
H150I	0.713
H150L	0.769
L72W	0.18
L72G	0.189
L72T	0.0921
V209H	0.835
T138G	0.526
T138R	0.375
T138V	0.728
C5Q	0.133

Variant	THAP1 transcriptional activity
C5F	0.125
C5S	0.0878
C5P	0.0866
S194Q	1.42
Q124D	0.637
Q124P	0.631
Q124I	0.516
E37A	0.542
E37M	0.792
Y14M	0.0755
Y14K	0.083
Y14D	0.122
Y14H	0.106
Y14C	0.157
C170E	0.194
C170K	0.26
C170D	0.173
C170Y	0.702
C170G	0.353
Y8E	0.484
A115L	0.295
T59Y	0.0936
R196A	0.861
R196V	1.54

Variant	THAP1 transcriptional activity
E35P	0.243
F81N	0.75
R41H	0.827
R41P	0.0904
R41V	0.131
C83S	1.05
C83K	1
C83V	1.41
N203Y	1.02
N203A	1.28
N203I	1.01
N203Q	0.904
H87S	2.01
N68G	0.127
N68T	0.179
L82P	2.38
L82T	2.19
V183E	0.876
V183W	0.798
S52L	0.606
Q145L	0.544
Q145K	0.783
Q145R	0.646
N136I	0.149

Variant	THAP1 transcriptional activity
N136C	0.164
S31E	1.31
S31P	0.204
S31T	1.19
S31N	0.574
S31Y	0.535
S130M	0.164
E91F	0.403
E91D	1.04
V184N	1.19
V184T	1.1
K16H	0.0905
K16S	0.191
V193C	1.04
K24N	0.0904
N75I	0.302
D92T	0.984
P106Y	1.49
P106D	1.76
P106F	0.72
P122D	0.515
P122L	0.692
F132E	0.425
F132P	0.285

Variant	THAP1 transcriptional activity
F132W	0.329
F132Q	0.462
F132G	0.49
S55K	0.0934
S55H	0.0394
L27Y	0.304
L27F	0.503
L27Q	0.235
I200K	0.283
I200E	0.762
K73G	0.194
D113K	0.918
D113I	0.206
R160Y	0.263
R160A	0.391
P101K	1.21
P101A	1.1
C54V	0.0511
C54R	0.0929
A39P	0.143
A39C	0.272
G9S	0.167
C10E	0.0982

From the supplement of paper PMC11811203
